Experimental data published in US10766952B2, “Methods for reducing migraine frequency in a subject in need thereof” (Beth Israel Deaconess Medical Center, Inc., priority 2017, dated 2020).

Columns and labels:
Assay type in all cases: in vivo, rat
[1] = system: naïve high-threshold (HT) trigeminovascular neurons; experiment: Single-unit recording of naïve central trigeminovascular neurons, HT neurons; settings: 30 mg/kg IV
Source text: (§1) Experiments were approved by the Beth Israel Deaconess Medical Center and Harvard Medical School standing committees on animal care, and in accordance with the U.S. National Institutes of Health Guide for the Care and Use of Laboratory Animals. Male and female Sprague-Dawley rats (250-350 g) were anesthetized with urethane (0.9-1.2 g/kg i.p.). They were fitted with an intra-tracheal tube to allow artificial ventilation (0.1 L/min of (O2), and an intra-femoral-vein cannula for later infusion of drugs. Rats were placed in a stereotaxic apparatus, and core temperature was kept at 37° C. using a heating blanket. End-tidal […] was continuously monitored and kept within physiological range (3.5-4.5 pCO2). Once stabilized, rats were paralyzed with rocuronium bromide (10 mg/ml, 1 ml/hr continuous intravenous infusion) and ventilated. For stimulation of the cranial dura later in the experiment, a 5×5-mm opening was carefully carved in the parietal and occipital bones in front and behind the lambda suture, directly above the left transverse sinus. The exposed dura was kept moist using a modified synthetic interstitial fluid (135 mM NaCl, 5 mM KCl, 1 mM MgCl2, 5 mM CaCl2, 10 mM glucose and 10 mM Hepes, pH 7.2). For single-unit recording in the spinal trigeminal nucleus, a segment of the spinal cord between the obex and C2 was uncovered from overlying tissues, stripped of the dura mater, and kept moist with mineral oil.
To record neuronal activity, a tungsten microelectrode (impedance 3-4 MΩ) was lowered repeatedly into the spinal trigeminal nucleus (STN) in search of central trigeminovascular neurons receiving convergent input from the dura and facial skin. Trigeminovascular neurons were first identified based on their responses to electrical stimulation of the dura. […] Dural receptive fields were mapped by indenting the dura (with the 4.19 g VFH monofilament) at points separated by 1 mm mediolaterally and rostrocaudally. Points at which dural indentation produced a response in ≥50% of the trials were considered inside the neurons receptive field. Cutaneous receptive fields were mapped by applying innocuous and noxious mechanical stimulation to all facial skin areas and the cornea. An area was considered outside the receptive field if no stimulus produced a response in ≥50% of the trials. Responses to mechanical stimulation of the skin were determined by applying brief (10 s) innocuous and noxious stimuli to the most sensitive portion of the cutaneous receptive field. Innocuous stimuli consisted of slowly passing a soft bristled brush across the cutaneous receptive field (one 5-s brush stroke from caudal to rostral and one 5-s brush stroke from rostral to caudal) and pressure applied with a loose arterial clip. Noxious stimuli consisted of pinch with a strong arterial clip (Palecek et al., 1992, J. Neurophysiol. 67:1562-1573; Dado et al., 1994, J. Neurophysiol. 71:981-1002; Burstein et al., 1998, J. Neurophysiol. 79:964-982). More intense or prolonged stimuli were not used to avoid inducing prolonged changes in spontaneous neuronal discharge or response properties. […] Real-time waveform discriminator was used to create and store a template for the action potential evoked in the neuron under study by electrical pulses on the dura; spikes of activity matching the template waveform were acquired and analyzed online and offline using Spike 2 software (CED, Cambridge, UK). […]

[2] = system: naïve wide-dynamic range (WDR) trigeminovascular neurons; experiment: Single-unit recording of naïve central trigeminovascular neurons, WDR neurons; settings: 30 mg/kg IV
Source text: as §1, with “For single-unit recording in the spinal trigeminal nucleus, a segment of the spinal cord between the obex and C2 was uncovered from overlying tissues, stripped of the dura mater, and kept moist with mineral oil.” left out
To record neuronal activity, a tungsten microelectrode (impedance 3-4 MΩ) was lowered repeatedly into the spinal trigeminal nucleus (STN) in search of central trigeminovascular neurons receiving convergent input from the dura and facial skin. […] Responses to mechanical stimulation of the skin were determined by applying brief (10 s) innocuous and noxious stimuli to the most sensitive portion of the cutaneous receptive field. […] Real-time waveform discriminator was used to create and store a template for the action potential evoked in the neuron under study by electrical pulses on the dura; spikes of activity matching the template waveform were acquired and analyzed online and offline using Spike 2 software (CED, Cambridge, UK). […]

[3] = system: central trigeminovascular neurons in the medullary dorsal horn; experiment: Activation of central trigeminovascular neurons by picrotoxin-induced seizure; settings: 30 mg/kg intravenously four hours before induction of seizure
Source text: Cortical electrodes were used to trace the magnitude, extent and progression of epileptiform seizures.
Surgical preparation and single-unit recording. Single-unit recordings were obtained from neurons in the trigeminal ganglion and dorsal horn as described in previous studies (Burstein et al. (1998) J. Neurophysiol. 79: 964-82; Strassman and Levy (2006) J. Neurophysiol. 95: 1298-306; Strassman et al. (1996) Nature 384: 560-4; Zhang et al. (2010) J. Neurosci. 30: 8807-14; and Zhang et al. (2011) Ann. Neurol. 69: 855-65). Experiments were done in adult Sprague-Dawley rats (250 g to 350 g). Animals were anesthetized with urethane (1.2-1.5 g/kg), artificially ventilated with oxygen, and paralyzed. Body temperature was controlled, and end-tidal CO2 and oxygen saturation was monitored. For ganglion recordings, four separate craniotomies were made: over the contralateral cortex, to advance the microelectrode; over the ipsilateral parietal cortex, and the ipsilateral occipital cortex, for application of the picrotoxin and recording of electrocorticogram activity; and over the ipsilateral transverse sinus, for electrical and mechanical stimulation of dural afferents, and lidocaine application. For dorsal horn recording, the same craniotomies were made over the ipsilateral cortex and the ipsilateral transverse sinus, but no contralateral craniotomy was made. Instead, a laminectomy was made to expose the upper cervical spinal cord (C1-2) for microelectrode recording. In both the trigeminal ganglion and the dorsal horn recording experiments, the search stimulus for finding dura-sensitive neurons is single-shock electrical stimulation applied to the dura covering the transverse sinus.
Seizure induction and electrocorticogram recording. […] For verification of seizure induction, cortical activity was recorded with a glass micropipette (0.9% saline, ˜1 megohm, 7 μm tip) placed just below the surface of the cerebral cortex, at the parietal and the occipital site. […]

B1: fremanezumab (antibody)
heavy: EVQLVESGGGLVQPGGSLRLSCAASGFTFSNYWISWVRQAPGKGLEWVAEIRSESDASATHYAEAVKGRFTISRDNAKNSLYLQMNSLRAEDTAVYYCLAYFDYGLAIQNYWGQGTLVTVSSASTKGPSVFPLAPCSRSTSESTAALGCLVKDYFPEPVTVSWNSGALTSGVHTFPAVLQSSGLYSLSSVVTVPSSNFGTQTYTCNVDHKPSNTKVDKTVERKCCVECPPCPAPPVAGPSVFLFPPKPKDTLMISRTPEVTCVVVDVSHEDPEVQFNWYVDGVEVHNAKTKPREEQFNSTFRVVSVLTVVHQDWLNGKEYKCKVSNKGLPSSIEKTISKTKGQPREPQVYTLPPSREEMTKNQVSLTCLVKGFYPSDIAVEWESNGQPENNYKTTPPMLDSDGSFFLYSKLTVDKSRWQQGNVFSCSVMHEALHNHYTQKSLSLSPGK
light: EIVLTQSPATLSLSPGERATLSCKASKRVTTYVSWYQQKPGQAPRLLIYGASNRYLGIPARFSGSGSGTDFTLTISSLEPEDFAVYYCSQSYNYPYTFGQGTKLEIKRTVAAPSVFIFPPSDEQLKSGTASVVCLLNNFYPREAKVQWKVDNALQSGNSQESVTEQDSKDSTYSLSSTLTLSKADYEKHKVYACEVTHQGLSSPVTKSFNRGEC
notes: humanized anti-CGRP antagonist antibody, vectors ATCC PTA-6867 and PTA-6866
spontaneous activity of HT neurons ([1]; female rats): did not reduce the spontaneous activity
decrease of firing of HT neurons in response to mechanical stimulation of the dura ([1]; female rats, p=0.017): 61%
responses of HT neurons to innocuous (brush, pressure) or noxious (pinch) mechanical stimulation of the skin or the cornea ([1]; male or female rats): did not alter the responses
decrease of firing of HT neurons in response to mechanical stimulation of the dura ([1]; male rats, p=0.047): 75%
decrease of spontaneous neuronal firing of HT neurons ([1]; male rats, within 3-4 hrs, p=0.040): 90%
spontaneous activity of WDR neurons ([2]; female rats): did not reduce the spontaneous activity
sensitivity of WDR neurons to mechanical stimulation of the dura ([2]; male and female rats): not the WDR neurons
responses of WDR neurons to innocuous (brush, pressure) or noxious (pinch) mechanical stimulation of the skin or the cornea ([2]; male or female rats): did not alter the responses
neurons activated by the seizure [3]: 15%
neurons activated by the seizure (activated/tested) [3]: 2/13
activation of central trigeminovascular neuron by seizure ([3]; FIG. 24): prevented the activation of a central trigeminovascular neuron
